# Source: patent publication US20080026992
# Tests used:
# [1] = system: p27Kip1, recombinant, tyrosine-phosphorylated in vitro by Abl kinase (Tyr-88 phosphorylated p27)
# [2] = system: p27Kip1, recombinant, unphosphorylated
# [3] = system: mutant p27 Y88F, phosphorylated on Tyr-89 by recombinant Abl kinase
# mutant p27 Y88F, phosphorylated on Tyr-89 by recombinant Abl kinase, sequence (chain, as listed by the source Y88F): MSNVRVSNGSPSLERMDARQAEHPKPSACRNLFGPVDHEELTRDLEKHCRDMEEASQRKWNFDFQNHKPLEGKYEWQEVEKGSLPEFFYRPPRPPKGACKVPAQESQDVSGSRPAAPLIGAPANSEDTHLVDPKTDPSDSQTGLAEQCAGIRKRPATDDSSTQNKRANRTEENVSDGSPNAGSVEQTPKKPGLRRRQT
substance,measurement,setting,value
"CDK2/cyclin A complex, recombinant, purified from Sf9 insect cells",phosphorylation of Thr-187 of p27 in CDK2 kinase complexes (Western blot with a phospho-threonine 187 specific antibody),[1],Phosphorylation of Thr-187 was indeed strongly enhanced if Tyr-88 phosphorylated p27 was incubated in CDK2 kinase complexes (FIG. 5b)
same,phosphorylation of p27 by CDK2 within p27/CDK2/cyclin A complexes (32P incorporation),[1],the tyrosine phosphorylated protein was a good substrate for CDK2 phosphorylation (FIG. 5a)
same,phosphorylation of p27 by CDK2 within p27/CDK2/cyclin A complexes (32P incorporation),[2],"As expected, p27 was poorly phosphorylated due to the absence of free kinase"
same,phosphorylation of Thr-187 of p27 in CDK2 kinase complexes (Western blot with a phospho-threonine 187 specific antibody),[3],a mutant phosphorylated on Tyr-89 is not a good substrate for CDK2-dependent phosphorylation (FIG. 5b)
